Laboratory results taken from the RNAGym collection of RNA variant scans (doi:10.1073/pnas.2313332121).

B1: TPR t1 (parent)
chain: GACCAAUCUGCCCUCAGAGCUCGAGAACAUCUUCGGAUGCAGAGGAGGCAGGCUUCGGUGGCGCGAUAGCGCCAACGUCCUCAACCUCCAAUGCAUCCCACCACAUGAUGAUGCCUGAAGAGCCUUGGUUUUUUG

Variants of: B1
Test: polymerase ribozyme fitness, log enrichment relative to wild type (log ratio); higher = more active; in vitro selection for triplet polymerase activity
How it was run: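 Fitness measures genotype enrichment against wild-type enrichment on a logarithmic scale, with inverse-variance-weighted averaging of replicates. The logarithm is base 2, and genotypes were kept only with ≥10 input reads and ≥1 read per output in Illumina sequencing. The sequenced libraries came from one triplicate in vitro selection round, including frozen incubation at −7 °C, of PCR-built, transcribed mutant libraries of each subunit of a heterodimeric triplet polymerase ribozyme.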

Row | Variant | polymerase ribozyme fitness (log ratio)
1 | U21A U54C G61A A111G C123U | -5.38
2 | G58A C70G G120A U129A | -3.9
3 | C11U C56A | -0.322
4 | A2C G69A | -3.57
5 | C22G C53U G57C U78C C104A C124G | -1.59
6 | C49U A50G C70A | -4.55
7 | A50C C53G C86U C88U G107U A121U | -5.3
8 | C73G A121G | 1.16
9 | G60A C104A | -1.89
10 | C13G A95G U112C C124U | 1.05
11 | U112G U133G | -0.442
12 | G10C G71U | -1.91
13 | C72G C80A U81G C86A | -6.59
14 | U7A C70A G71A | -2.52
15 | U38C C53A G93C G122A C123U | -2.19
16 | U32C | 0.135
17 | C8U G45A G52C C72A C123G | 1.37
18 | A50C U55G G58C U81A C124A | 1.51
19 | U21G A46U G69U G117C | -4.95
20 | G44A C49U U54G U59A G61A A119G | -7.24
21 | A6U C53G C114A U131C | -1.89
22 | U9G G52U C82U | -1.33
23 | C28G G44U A111C G117C | -6.59
24 | A6C C72U G93U A100U | -2.39

Row | Variant | polymerase ribozyme fitness (log ratio)
25 | U7A G42U G58C G71U C88U G113A | -2.19
26 | C53A G69U C88G U112A G122A U133C | 1.96
27 | U9G A43G C49A U81A G127U U133G | -2.11
28 | C11G G25A | -4.53
29 | C40A C49A C86G | -3.35
30 | A26G C73A A100U | -2.85
31 | C8G U54G C115A | 2.13
32 | C34A A50U A83G | -4.58
33 | C73A U133A | 0.106
34 | C3U C123U | 0.881
35 | C56A U129C | -0.603
36 | C104U U129C | -0.415
37 | C12A G61A | -0.687
38 | A2U G36C C82U G113U G135U | -5.19
39 | U9A C89G | -2.53
40 | C8A C34U C53U C62G U109A | -6.27
41 | C8A G69A | -1.52
42 | C85G U106C | -0.939
43 | A26U G61A U116G A121G | -2.88
44 | A29G G36A C53U U55C G69U G127C | -4.42
45 | U9A G48U C64U C72A | 0.0767
46 | G17A U131A | -1.99
47 | G63C A84G C94A | -3.04
48 | A29U G45U G120A G128U | -3.92

Row | Variant | polymerase ribozyme fitness (log ratio)
49 | A6U A37U | -0.0542
50 | G42A U129G | -2.39
51 | A26G G47A C72U G93C G113A | -6.9
52 | G48A C124G | 0.442
53 | G69U A74U C80U | -0.977
54 | A43U U112A | -0.216
55 | G36U A83U | -1.49
56 | C72U C123A | 0.21
57 | C13U G51U G60U C97U A119G G127U | -2.62
58 | C12A C49U G113C U133C | -3.24
59 | G57C A83C A111G G122A G127A | -3.51
60 | C11G G113C | -1.3
61 | A2G C12U A43U G44U C115U | -2.29
62 | G48A C73U C82U G93U | -1.54
63 | A2C C11A G60A G69U C89G G122A | -3.67
64 | C11A U87G C101G | -2.62
65 | A26C A46G G69U A74U | -5.53
66 | C70A C73U | -1.81
67 | C31U C89U | -5.93
68 | U7C G69U C80A A83U G128C | -5.37
69 | C89A C123U U129A | -1.73
70 | A6U C53A C97U G113A | -1.91
71 | A50U C62A C82A | -1.33
72 | C31U C104U | -4.18

Row | Variant | polymerase ribozyme fitness (log ratio)
73 | A43C A46C U96A U106A U116G C123A | -7.89
74 | G47C C49A A111U | -5.94
75 | G19U G39U G48A G63C A111G | -4.79
76 | C13G A105U U112C | -2.47
77 | G120C G122A | -0.824
78 | A16U G47U G52U C115U G117C | -5.71
79 | G117C C123U | -4.89
80 | G42U G44A C70A G127U | -4.25
81 | C12G C73U | -0.295
82 | C13A U78C | -1.78
83 | G63A C104U C114G | -4.92
84 | G10U G42U C89U | -1.96
85 | U7G C79U C124A | 2.08
86 | C56U C64A C115U | -7.12
87 | A29G A50U C73G | -1.85
88 | C56U U116C | -0.494
89 | A5U A95C | -1.24
90 | A5C U92G | -4.05
91 | A37U C101A C115U G127C | -4.26
92 | G10A G17A U106A | -3.51
93 | C11U A46G G51U C80U | -1.92
94 | U38C G39U | -1.44
95 | G48C C49A A50G G52C C53U C86G C94U C114A | -3.63
96 | A5G U59G G63U C73G A111C | -6

Row | Variant | polymerase ribozyme fitness (log ratio)
97 | C11U C28G C85A C104U G113C | -6.42
98 | A2U C12U C64U | -2.54
99 | C40A A43U G63U C89U C102U U106C C123A | -7.19
100 | G10A G35U C56G C88A G120C U133A | -4.15
101 | U9C A41U C72U U78A G93C | -1.36
102 | C3U G60A | -0.489
103 | G52U U106C A118G | -0.754
104 | C88G G127C | -2.07
105 | C8G G17C C40U G61U U106A U131A | -4.28
106 | U9C C79A G128C | -2.56
107 | C88A U125G | -1.18
108 | A37C C49A C104U U125G | -1.1
109 | A2U A37G C76G | -3.35
110 | C13G C73A U81G A121G | -1.23
111 | A5U C12U C49U C94U | -2.22
112 | A43U G135U | -0.971
113 | C12U U96A | -0.734
114 | G47A U96A U126C | -3.31
115 | C11U G52A C94G C104A A121G | -2
116 | A46C U125A | -1.48
117 | C70U A100C | -1.61
118 | A74C U92C G127A | -2.3
119 | G44C G120C | -0.584
120 | U78A C94G C101A | -1.93

Row | Variant | polymerase ribozyme fitness (log ratio)
121 | C53A G71U | -1.5
122 | A5C C13A C94A U112G | -2.97
123 | C4A U78A G93C C115A | -2.87
124 | G77C U131G | -0.172
125 | C64U U130G | -0.668
126 | G60C G61C U81G C115U | -5.37
127 | A2U C73A U130A U133G | -2.47
128 | C40G C53G G77A U106C U116C | -3.58
129 | G39U A91U U126G G128U | -3.6
130 | C49U G63A C80U G120A | -5.11
131 | C49G U112A | 0.92
132 | C123U U134C | 1.29
133 | C13G A50U U87C | -3.31
134 | G10U A16U C72U C79A C114G C123A U130G | -6.07
135 | C34A U87A | -3.34
136 | G45U C99A G117C | -6.81
137 | A46G C104A G113A | -2.84
138 | C72G C115U | -1.03
139 | A84G C102A | -3.38
140 | C114U G117C U133A | -5.74
141 | U9C C86A C99A | -5.49
142 | C82U U134G | 0.46
143 | C40U A74C G77U C94U C114G | -2.59
144 | U54G G122A G128C | -2.84

Row | Variant | polymerase ribozyme fitness (log ratio)
145 | C34U U81C | -5.69
146 | U9C C49U | 0.0306
147 | U38G G52A G61A U112G C124U U129G | -1.92
148 | C40U G60U C94A C101G U106A | -1.22
149 | G61U C82U | -0.605
150 | A2G C70A | -1.82
151 | G57U G60C U96G | -2.78
152 | G69U C123G | 2.28
153 | C13U C62A U78C A118U G122A | -2.29
154 | A6C C12U G48C U78G G110C | -4.8
155 | C34A C73U C82U C99A | -4.69
156 | G36U C62A C123U G128C | -3.69
157 | A29G A43U G61U U116C G117U | -0.773
158 | A74U C80G U112A | -5.78
159 | C13G C49U C82A C124G U125A | 0.252
160 | C13U U112C G135U | 1.11
161 | A66G C79G U81C C99G G113U G120C | -7.68
162 | C49U C56A | -1
163 | C22G C62A | -3.99
164 | A74G C102U A119U | -0.954
165 | G45C C101A U106C | -2.07
166 | C11U C53A G69U G93C C94U | -0.279
167 | C12U C28U C53G U129A U130C | -2.76
